In the test the target is T1, β2 microglobulin (human, UniProt P61769 21-119).
T1 construct: β2M alone, as a denatured band on a Western blot; also called 12 kD molecule
Nature of the test: Western blot. On the technique in general: Immunoblotting shows a protein as a band on a membrane.

Here are results for one molecule from patent publication US20060275301A1 (Chugai, published 2006).

T1 sequence (P61769 21-119 limits assumed): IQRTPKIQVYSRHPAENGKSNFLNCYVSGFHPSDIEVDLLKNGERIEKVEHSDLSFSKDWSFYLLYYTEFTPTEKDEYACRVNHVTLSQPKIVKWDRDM

B1: 2D7 antibody (antibody, V domains shown)
VH: QVQLQQSGPELVKPGASVKMSCKASGYTFTDYFIHWVKQRPGQGLEWIGWIFPGDDTTDYNEKFRGKTTLTADKSSSTAYILLSSLTSEDSAMYFCVRSDDFDYWGQGTTLTVSS
VL: QIVLTQSPAIMSASPGEKVTITCSASSSVSYMHWFQQKPGTFPKLWIYSTSNLASGVPTRFSGSGSGTSYSLTISRMEAEDAATYYCQQRTSYPPTFGSGTKLEIK
notes: CDR1 starts at 50 and 46, so these ranges probably include the leader, but no cleavage site is stated
Consider B1, for which the binding result is “no binding”.
